The series is described as follows: protein stability index of a GFP-peptide fusion (GPS, HEK-293T) (PSI 1-6); higher = more stable.
[1] abbreviates: treatment: DMSO, c terminus: a fixed tail appended.
[2] abbreviates: treatment: MLN4924 1 uM, 8 h, c terminus: a fixed tail appended.

± gives the standard deviation.
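Further: 24-mer peptide tiles fused after GFP, lentivirally expressed, FACS-sorted into six equal bins by GFP/DsRed ratio, decoded by Illumina sequencing, PSI is the read-weighted mean bin number.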

Regarding MGIVNLNIHMNFTHICRSHNSINQ [SLC2A12], the protein stability index runs as follows: under setting [1], 2.73 ± 0.52; under setting [2], 2.9 ± 0.46.

Turning to MGIYQMYLCFLLAVLLQLYVATEA [SLC22A15], the protein stability index worked out at 2.92 ± 0.38 under setting [1] and 2.84 ± 0.41 under setting [2].

With MGLYDGMEHLIYGEPRKLLTQDWV [MAGEA10], the protein stability index runs as follows: under setting [1], 2.25 ± 0.31; under setting [2], 2.28 ± 0.51.

Take MIMLKDRRMTVVGRLEGLIQPDDL [FAF2]: the protein stability index reads like this: under setting [1], 2.34 ± 0.25; under setting [2], 2.56 ± 0.29.

MKDRTQELRTAKDSDDDDDVAVTV [STX1A]: the protein stability index under setting [1] was found to be 5.11 ± 0.33 and the protein stability index under setting [2] worked out at 5.43 ± 0.32.

MLATRNFSGGKSGGNKKSDGVKES [CAMK2A] returned a protein stability index under setting [1] of 4.51 ± 0.7 and a protein stability index under setting [2] of 4.54 ± 0.12.

With MLEASEWATIEGLVELLQPFKQVA [ZBED1], the protein stability index by setting is: under setting [1], 2.23 ± 0.76; under setting [2], 2.27 ± 0.23.

Regarding MLERRYTPYPNLYPDQSPSEDWTM [CLCN6], the protein stability index by setting is: under setting [1], 3 ± 0.3; under setting [2], 3.16 ± 0.23.

MLPTVITDIKDESCCMTEEIFGPV [ALDH8A1]: the protein stability index was 3.83 ± 0.2 under setting [1] and 3.81 ± 0.13 under setting [2].

Consider MLRSGLSGLGSCLPGSYLSSECHT [KRT36], for which the protein stability index under setting [1] was 2.42 ± 0.12 and the protein stability index under setting [2] was determined as 2.37 ± 0.092.

For MLYEKQKQQNVAHCMLVSNRVSWW [ZBED1], the protein stability index came out at 2.08 ± 0.17 under setting [1] and 2.31 ± 0.2 under setting [2].

In the case of MNPYKIDIGAVYSHRPNQHNTVKL [PRIM1], the protein stability index by setting is: under setting [1], 2.79 ± 0.06; under setting [2], 2.43 ± 0.37.

Turning to MPAATVDHSQRICEVWACNLDEEM [CNOT7], the protein stability index runs as follows: under setting [1], 4.65 ± 0.41; under setting [2], 4.77 ± 0.28.

Turning to MPEEVHHGEEEVETFAFQAEIAQL [HSP90AB1], the protein stability index by setting is: under setting [1], 5.24 ± 0.28; under setting [2], 5.16 ± 0.14.

Take MQGNQILVFPSSSSSSSSQAPGQP [ZBTB22]: the protein stability index is 4.28 ± 0.24 under setting [1] and 4.22 ± 0.22 under setting [2].

Take MQIAVPCAFLLLRLLVGLALATLR [TMEM175]: the protein stability index was found to be 2.46 ± 0.28 under setting [1] and 2.26 ± 0.17 under setting [2].

On to MQRGARLPAEVAGLSQVLLRGGGQ [POMT2], for which the protein stability index reads like this: under setting [1], 3.6 ± 0.27; under setting [2], 3.64 ± 0.21.

In turn, MRHEELLTKTFQGPAVVCGTPTSH [LYSMD4] came in with a protein stability index under setting [1] of 3.82 ± 0.19 and a protein stability index under setting [2] of 3.82 ± 0.13.

On to MRLNSTGEVPVLIHGENIICEATQ [GDAP1], for which the protein stability index turned out to be 3.69 ± 0.17 under setting [1] and 3.8 ± 0.45 under setting [2].

For MRSNYPPPLSSAALRGAGPTRRN [C6orf223], the protein stability index (treatment: DMSO, c terminus: native) was 3.1 ± 1.3 and the protein stability index (treatment: MLN4924 1 uM, 8 h, c terminus: native) was found to be 3.18 ± 0.51.

Take MTLLPGDNSDYDYSALSCTSDASF [KCNG1]: the protein stability index is 3.79 ± 0.27 under setting [1] and 3.87 ± 0.24 under setting [2].

Take MTVMSGENVDEASAAPGHPQDGSY [KCNA1]: the protein stability index by setting is: under setting [1], 5.37 ± 0.21; under setting [2], 5.12 ± 0.14.

For the sequence MTVVRMDASVQPGPFRTLLQFLYT [RHOBTB1], the protein stability index is, setting by setting: under setting [1], 2.41 ± 0.4; under setting [2], 2.25 ± 0.4.

For MVDIIFHYPFLGAMGDHSKKKPGT [ISL2], the protein stability index was determined as 2.34 ± 0.28 under setting [1] and 2.38 ± 0.61 under setting [2].

MVKEPVEDTDPSTLSFNMSDKYPI [EDARADD]: the protein stability index runs as follows: under setting [1], 4.37 ± 0.43; under setting [2], 4.5 ± 0.29.

Consider MVRKIGCYAAMKKKIYAMGGGSYG [GAN], for which the protein stability index under setting [1] is 2.28 ± 0.17 and the protein stability index under setting [2] amounted to 2.45 ± 0.38.

Take NAIPGRTDIELEIYGMEGIPEKDM [ZNF207]: the protein stability index came out at 4.23 ± 0.35 under setting [1] and 4.37 ± 0.29 under setting [2].

In the case of NAVKYVSNIKFCSFHPLQYIGFYG [PDS5B], the protein stability index under setting [1] amounted to 2.89 ± 0.25 and the protein stability index under setting [2] was determined as 2.35 ± 0.54.

For the sequence NDIFQAANPYWTSRGSSVSMSGGR [TRIM63], the protein stability index under setting [1] came to 3.76 ± 0.34 and the protein stability index under setting [2] turned out to be 3.63 ± 0.062.

(Values after the supplement of paper PMC10567573.)
